The labels stand for the following.
B1: POU domain, class 3, transcription factor 1, residues 247 to 324; numbered along this chain, Q03052 (parent)
chain: EDAPSSDDLEQFAKQFKQRRIKLGFTQADVGLALGTLYGNVFSQTTICRFEALQLSFKNMCKLKPLLNKWLEETDSSS

± gives the uncertainty stated by the source.

The data set covers variants of B1. The data set can be described thus: abundance fitness (aPCA) (normalised: wild type 0, dead -1); higher = more abundant; growth selection in yeast, the domain comes from the species named. The conditions noted are these: Homo sapiens.
On to EDAPSSDDLEQFAKQFKQRRIKLGFTQADVGLALGTLYGNVFSQTTICRFEALQLSFKNMCKLKPLLNCWLEETDSSS [K69C], for which the abundance fitness was -0.361 ± 0.095.

EDAPSSDDLEQFAKQFKQRRIKLGFTQADVGLALGTLYGNVFSQTTICRFEALQLSFKNMCKLKPLLNWWLEETDSSS [K69W]: the abundance fitness is -0.671 ± 0.12.

For EDAPSSDDLEQFAKQFKQRRIKLGFTQADVGLALGTLYGNVFSQTTICRFEALQLSFKNMCKLKPLLNPWLEETDSSS [K69P], the abundance fitness is -0.662 ± 0.11.

In the case of EDAPSSDDLEQFAKQFKQRRIKLGFTQADVGLALGTLYGNVFSQTTICRFEALQLSFKNMCKLKPLLNMWLEETDSSS [K69M], the abundance fitness is -0.144 ± 0.066.

With EDAPSSDDLEQFAKQFKQRRIKLGFTQADVGLALGTLYGNVFSQTTICRFEALQLSFKNMCKLKPLLNYWLEETDSSS [K69Y], the abundance fitness is -0.159 ± 0.14.

On to EDAPSSDDLEQFAKQFKQRRIKLGFTQADVGLALGTLYGNVFSQTTICRFEALQLSFKNMCKLKPLLNDWLEETDSSS [K69D], for which the abundance fitness was -0.19 ± 0.11.

In the case of EDAPSSDDLEQFAKQFKQRRIKLGFTQADVGLALGTLYGNVFSQTTICRFEALQLSFKNMCKLKPLLNTWLEETDSSS [K69T], the abundance fitness is -0.251 ± 0.074.

In the case of EDAPSSDDLEQFAKQFKQRRIKLGFTQADVGLALGTLYGNVFSQTTICRFEALQLSFKNMCKLKPLLNGWLEETDSSS [K69G], the abundance fitness is -0.119 ± 0.041.

As for EDAPSSDDLEQFAKQFKQRRIKLGFTQADVGLALGTLYGNVFSQTTICRFEALQLSFKNMCKLKPLLNAWLEETDSSS [K69A], the abundance fitness was -0.161 ± 0.048.

For EDAPSSDDLEQFAKQFKQRRIKLGFTQADVGLALGTLYGNVFSQTTICRFEALQLSFKNMCKLKPLLNQWLEETDSSS [K69Q], the abundance fitness was -0.02 ± 0.057.

With EDAPSSDDLEQFAKQFKQRRIKLGFTQADVGLALGTLYGNVFSQTTICRFEALQLSFKNMCKLKPLLNIWLEETDSSS [K69I], the abundance fitness is 0.102 ± 0.15.

Turning to EDAPSSDDLEQFAKQFKQRRIKLGFTQADVGLALGTLYGNVFSQTTICRFEALQLSFKNMCKLKPLLNNWLEETDSSS [K69N], the abundance fitness was -0.249 ± 0.12.

On to EDAPSSDDLEQFAKQFKQRRIKLGFTQADVGLALGTLYGNVFSQTTICRFEALQLSFKNMCKLKPLLNHWLEETDSSS [K69H], for which the abundance fitness is -0.254 ± 0.12.

Consider EDAPSSDDLEQFAKQFKQRRIKLGFTQADVGLALGTLYGNVFSQTTICRFEALQLSFKNMCKLKPLLNVWLEETDSSS [K69V], for which the abundance fitness is -0.559 ± 0.071.

As to EDAPSSDDLEQFAKQFKQRRIKLGFTQADVGLALGTLYGNVFSQTTICRFEALQLSFKNMCKLKPLLNEWLEETDSSS [K69E], the abundance fitness was -0.342 ± 0.072.

Take EDAPSSDDLEQFAKQFKQRRIKLGFTQADVGLALGTLYGNVFSQTTICRFEALQLSFKNMCKLKPLLNRWLEETDSSS [K69R]: the abundance fitness was -0.058 ± 0.041.

With EDAPSSDDLEQFAKQFKQRRIKLGFTQADVGLALGTLYGNVFSQTTICRFEALQLSFKNMCKLKPLLNKWHEETDSSS [L71H], the abundance fitness was -0.402 ± 0.35.

As to EDAPSSDDLEQFAKQFKQRRIKLGFTQADVGLALGTLYGNVFSQTTICRFEALQLSFKNMCKLKPLLNKWCEETDSSS [L71C], the abundance fitness was -0.712 ± 0.13.

Turning to EDAPSSDDLEQFAKQFKQRRIKLGFTQADVGLALGTLYGNVFSQTTICRFEALQLSFKNMCKLKPLLNKWGEETDSSS [L71G], the abundance fitness was -0.851 ± 0.11.

As for EDAPSSDDLEQFAKQFKQRRIKLGFTQADVGLALGTLYGNVFSQTTICRFEALQLSFKNMCKLKPLLNKWKEETDSSS [L71K], the abundance fitness was -0.677 ± 0.21.

Turning to EDAPSSDDLEQFAKQFKQRRIKLGFTQADVGLALGTLYGNVFSQTTICRFEALQLSFKNMCKLKPLLNKWDEETDSSS [L71D], the abundance fitness was -0.711 ± 0.47.

Regarding EDAPSSDDLEQFAKQFKQRRIKLGFTQADVGLALGTLYGNVFSQTTICRFEALQLSFKNMCKLKPLLNKWQEETDSSS [L71Q], the abundance fitness is -0.504 ± 0.16.

As to EDAPSSDDLEQFAKQFKQRRIKLGFTQADVGLALGTLYGNVFSQTTICRFEALQLSFKNMCKLKPLLNKWEEETDSSS [L71E], the abundance fitness is -0.63 ± 0.12.

As for EDAPSSDDLEQFAKQFKQRRIKLGFTQADVGLALGTLYGNVFSQTTICRFEALQLSFKNMCKLKPLLNKWTEETDSSS [L71T], the abundance fitness is -0.988 ± 0.23.

Regarding EDAPSSDDLEQFAKQFKQRRIKLGFTQADVGLALGTLYGNVFSQTTICRFEALQLSFKNMCKLKPLLNKWFEETDSSS [L71F], the abundance fitness was -0.82 ± 0.25.

Regarding EDAPSSDDLEQFAKQFKQRRIKLGFTQADVGLALGTLYGNVFSQTTICRFEALQLSFKNMCKLKPLLNKWSEETDSSS [L71S], the abundance fitness is -0.706 ± 0.13.

Consider EDAPSSDDLEQFAKQFKQRRIKLGFTQADVGLALGTLYGNVFSQTTICRFEALQLSFKNMCKLKPLLNKWNEETDSSS [L71N], for which the abundance fitness was -0.341 ± 0.18.

Regarding EDAPSSDDLEQFAKQFKQRRIKLGFTQADVGLALGTLYGNVFSQTTICRFEALQLSFKNMCKLKPLLNKWREETDSSS [L71R], the abundance fitness is -0.569 ± 0.081.

Regarding EDAPSSDDLEQFAKQFKQRRIKLGFTQADVGLALGTLYGNVFSQTTICRFEALQLSFKNMCKLKPLLNKWWEETDSSS [L71W], the abundance fitness was -0.584 ± 0.098.

In the case of EDAPSSDDLEQFAKQFKQRRIKLGFTQADVGLALGTLYGNVFSQTTICRFEALQLSFKNMCKLKPLLNKWPEETDSSS [L71P], the abundance fitness is -1.1 ± 0.27.

Regarding EDAPSSDDLEQFAKQFKQRRIKLGFTQADVGLALGTLYGNVFSQTTICRFEALQLSFKNMCKLKPLLNKWVEETDSSS [L71V], the abundance fitness was -0.356 ± 0.069.

Regarding EDAPSSDDLEQFAKQFKQRRIKLGFTQADVGLALGTLYGNVFSQTTICRFEALQLSFKNMCKLKPLLNKWAEETDSSS [L71A], the abundance fitness is -0.369 ± 0.077.

As for EDAPSSDDLEQFAKQFKQRRIKLGFTQADVGLALGTLYGNVFSQTTICRFEALQLSFKNMCKLKPLLNKWIEETDSSS [L71I], the abundance fitness was -0.019 ± 0.11.

In the case of EDAPSSDDLEQFAKQFKQRRIKLGFTQADVGLALGTLYGNVFSQTTICRFEALQLSFKNMCKLKPLLNKWMEETDSSS [L71M], the abundance fitness was 0.03 ± 0.082.

On to EDAPSSDDLEQFAKQFKQRRIKLGFTQADVGLALGTLYGNVFSQTTICRFEALQLSFKNMCKLKPLLNKLLEETDSSS [W70L], for which the abundance fitness is -0.549 ± 0.072.
